From the supplement of paper PMC10724198
± gives the standard deviation of the averaged measurements.

Key:
Saccharomyces cerevisiae [1] = assay: protein stability index of tFT-peptide fusion (C-terminal peptide) (PSI (0-1 scale)); higher = more stable (slower turnover)
Procedure: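 MPS profiling in S. cerevisiae of the tFT-X12 degron library: putative degron peptides plus stable controls, 12 aa, fused to the C-terminus of a sfGFP-mCherry timer. Cells are FACS-sorted into 8 mCherry/sfGFP bins and deep-sequenced. PSI runs from 0 (unstable) to 1 (stable). Backgrounds are wild type, das1Δ and doa10Δ at 30 °C, and wild type, das1Δ, cdc34-1 and cdc53-1 at 37 °C; 2-3 technical replicates each.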

Saccharomyces cerevisiae [2] = assay: as above; settings: genetic background: wild type; temperature: 30 C
[3] = genetic background: cdc34-1, temperature: 37 C
[4] = genetic background: cdc53-1, temperature: 37 C
[5] = genetic background: das1 deletion, temperature: 30 C
[6] = genetic background: das1 deletion, temperature: 37 C
[7] = genetic background: doa10 deletion, temperature: 30 C
[8] = genetic background: wild type, temperature: 30 C
[9] = genetic background: wild type, temperature: 37 C
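Also: PSI is a weighted mean of sequencing reads over stability bins, variants kept only with over 10 reads, mCherry proximal and sfGFP distal, peptide attached via GGGS linker.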

| Sequence | protein stability index (Saccharomyces cerevisiae [1]; [3]) | protein stability index (Saccharomyces cerevisiae [1]; [4]) | protein stability index (Saccharomyces cerevisiae [1]; [5]) | protein stability index (Saccharomyces cerevisiae [1]; [6]) | protein stability index (Saccharomyces cerevisiae [1]; [7]) | protein stability index (Saccharomyces cerevisiae [1]; [8]) | protein stability index (Saccharomyces cerevisiae [1]; [9]) | protein stability index (Saccharomyces cerevisiae [2]) |
| --- | --- | --- | --- | --- | --- | --- | --- | --- |
| VTLVIYVLVQLT | 0.148 ± 0.062 | 0.198 ± 0.11 | 0.156 ± 0.044 | 0.259 ± 0.0037 | 0.123 ± 0.02 | 0.15 ± 0.031 | 0.216 ± 0.037 | 0.188 ± 0.035 |
| VGCMVVIWVLWG | 0.153 ± 0.0096 | 0.225 ± 0.025 | 0.19 ± 0.034 | 0.313 ± 0.013 | 0.145 ± 0.001 | 0.18 ± 0.026 | 0.278 ± 0.025 | 0.325 ± 0.043 |
| LPSRWVPLPTPA | 0.5362 ± 0.0003 | 0.569 ± 0.024 | 0.407 ± 0.037 | 0.59 ± 0.004 | 0.38 ± 0.016 | 0.413 ± 0.022 | 0.56219 ± 0.00016 | 0.508 ± 0.016 |
| EGGLGDRLLGVG | 0.526 ± 0.035 | 0.577 ± 0.0092 | 0.501 ± 0.0078 | 0.573 ± 0.021 | 0.5161 ± 0.0024 | 0.518 ± 0.016 | 0.547 ± 0.0066 | 0.47 ± 0.015 |
| TALSRLFECFLS | 0.654 ± 0.052 | 0.744 ± 0.026 | 0.701 ± 0.028 | 0.768 ± 0.01 | 0.328 ± 0.0048 | 0.343 ± 0.03 | 0.499 ± 0.035 | 0.461 ± 0.046 |
| PSVRCVVACFIN | 0.241 ± 0.021 | 0.584 ± 0.13 | 0.464 ± 0.02 | 0.576 ± 0.0068 | 0.137 ± 0.028 | 0.172 ± 0.039 | 0.165 ± 0.015 | 0.277 ± 0.015 |
| FLSRLVGFYFVV | 0.606 ± 0.018 | 0.69 ± 0.0093 | 0.587 ± 0.026 | 0.733 ± 0.022 | 0.313 ± 0.006 | 0.312 ± 0.014 | 0.463 ± 0.014 | 0.361 ± 0.021 |
| FGSFVVWGVWWG | 0.458 ± 0.0071 | 0.4975 ± 0.0029 | 0.352 ± 0.036 | 0.563 ± 0.038 | 0.352 ± 0.015 | 0.356 ± 0.032 | 0.5069 ± 0.0015 | 0.508 ± 0.018 |
| WLWYSPIAFTAL | 0.632 ± 0.014 | 0.764 ± 0.041 | 0.64 ± 0.016 | 0.778 ± 0.02 | 0.11 ± 0.019 | 0.107 ± 0.0089 | 0.163 ± 0.0073 | 0.179 ± 0.015 |
| QGRRKEKAVTLN | 0.652 ± 0.12 | 0.685 ± 0.016 | 0.648 ± 0.041 | 0.729 ± 0.019 | 0.175 ± 0.035 | 0.193 ± 0.032 | 0.241 ± 0.022 | 0.3 ± 0.015 |
| LAVVCIHAVSSF | 0.51 ± 0.042 | 0.538 ± 0.069 | 0.352 ± 0.018 | 0.533 ± 0.0038 | 0.333 ± 0.02 | 0.373 ± 0.042 | 0.518 ± 0.038 | 0.418 ± 0.077 |
| AKVSFYALARQY | 0.665 ± 0.017 | 0.715 ± 0.018 | 0.636 ± 0.018 | 0.726 ± 0.016 | 0.323 ± 0.0065 | 0.355 ± 0.025 | 0.563 ± 0.0078 | 0.414 ± 0.036 |
| GCVTFVLISFCA | 0.238 ± 0.007 | 0.306 ± 0.039 | 0.225 ± 0.03 | 0.425 ± 0.012 | 0.186 ± 0.035 | 0.208 ± 0.027 | 0.386 ± 0.012 | 0.358 ± 0.016 |
| YRGFFIGKLMLV | 0.488 ± 0.04 | 0.548 ± 0.03 | 0.482 ± 0.035 | 0.63 ± 0.013 | 0.112 ± 0.017 | 0.113 ± 0.018 | 0.216 ± 0.081 | 0.201 ± 0.013 |
| GYRYMWLWRLSA | 0.544 ± 0.027 | 0.706 ± 0.026 | 0.665 ± 0.036 | 0.762 ± 0.028 | 0.148 ± 0.0028 | 0.143 ± 0.032 | 0.235 ± 0.013 | 0.178 ± 0.095 |
| PISLYFVWFFFF | 0.242 ± 0.0081 | 0.363 ± 0.033 | 0.251 ± 0.024 | 0.369 ± 0.04 | 0.15 ± 0.011 | 0.147 ± 0.0072 | 0.269 ± 0.015 | 0.195 ± 0.074 |
| LFCVCFYGRIFL | 0.443 ± 0.017 | 0.556 ± 0.038 | 0.335 ± 0.028 | 0.526 ± 0.018 | 0.328 ± 0.018 | 0.334 ± 0.022 | 0.5 ± 0.011 | 0.423 ± 0.0066 |
| FFVFMAKLRTCN | 0.455 ± 0.042 | 0.536 ± 0.034 | 0.444 ± 0.025 | 0.594 ± 0.0073 | 0.112 ± 0.019 | 0.127 ± 0.025 | 0.198 ± 0.029 | 0.0754 ± 0.063 |
| VELRNCYLLVKA | 0.204 ± 0.0059 | 0.282 ± 0.013 | 0.222 ± 0.037 | 0.381 ± 0.013 | 0.178 ± 0.018 | 0.22 ± 0.032 | 0.34 ± 0.0065 | 0.327 ± 0.037 |
| LESYGLRDSTSG | 0.641 ± 0.05 | 0.651 ± 0.032 | 0.638 ± 0.099 | 0.741 ± 0.042 | 0.65 ± 0.0099 | 0.681 ± 0.044 | 0.69 ± 0.018 | 0.621 ± 0.27 |

| Sequence | protein stability index (Saccharomyces cerevisiae [1]; [3]) | protein stability index (Saccharomyces cerevisiae [1]; [4]) | protein stability index (Saccharomyces cerevisiae [1]; [5]) | protein stability index (Saccharomyces cerevisiae [1]; [6]) | protein stability index (Saccharomyces cerevisiae [1]; [7]) | protein stability index (Saccharomyces cerevisiae [1]; [8]) | protein stability index (Saccharomyces cerevisiae [1]; [9]) | protein stability index (Saccharomyces cerevisiae [2]) |
| --- | --- | --- | --- | --- | --- | --- | --- | --- |
| SFFVCVRVFGCC | 0.315 ± 0.012 | 0.369 ± 0.011 | 0.255 ± 0.042 | 0.44 ± 0.0095 | 0.2075 ± 0.0016 | 0.239 ± 0.018 | 0.398 ± 0.011 | 0.337 ± 0.021 |
| VCFFLFWCLSFS | 0.4239 ± 0.0013 | 0.479 ± 0.021 | 0.343 ± 0.05 | 0.4916 ± 0.00098 | 0.348 ± 0.011 | 0.353 ± 0.025 | 0.476 ± 0.021 | 0.454 ± 0.034 |
| PCVLAIYVWIRS | 0.0479 ± 0.016 | 0.169 ± 0.019 | 0.154 ± 0.037 | 0.2704 ± 0.0022 | 0.083 ± 0.016 | 0.107 ± 0.016 | 0.173 ± 0.011 | 0.163 ± 0.054 |
| LFRGVWYYFLVR | 0.486 ± 0.041 | 0.5274 ± 0.0022 | 0.445 ± 0.021 | 0.61 ± 0.0087 | 0.504 ± 0.029 | 0.438 ± 0.029 | 0.586 ± 0.019 | 0.507 ± 0.028 |
| FVSGRFLFFFVL | 0.52 ± 0.029 | 0.675 ± 0.0071 | 0.489 ± 0.018 | 0.699 ± 0.014 | 0.162 ± 0.0036 | 0.144 ± 0.018 | 0.208 ± 0.0074 | 0.204 ± 0.04 |
| LFHSFFLYCLMS | 0.56 ± 0.017 | 0.5796 ± 0.0031 | 0.616 ± 0.042 | 0.662 ± 0.04 | 0.5838 ± 0.0054 | 0.541 ± 0.022 | 0.6 ± 0.045 | 0.482 ± 0.015 |
| LVLCCGFWFRAV | 0.619 ± 0.046 | 0.606 ± 0.038 | 0.464 ± 0.031 | 0.612 ± 0.0063 | 0.27 ± 0.0049 | 0.286 ± 0.029 | 0.501 ± 0.02 | 0.381 ± 0.025 |
| RRTTIFDTKEPP | 0.561 ± 0.02 | 0.563 ± 0.028 | 0.523 ± 0.062 | 0.5752 ± 0.0014 | 0.532 ± 0.028 | 0.511 ± 0.019 | 0.5689 ± 0.0054 | 0.462 ± 0.017 |
| FFRAYLQMYVTD | 0.412 ± 0.0053 | 0.471 ± 0.021 | 0.413 ± 0.029 | 0.4057 ± 0.0032 | 0.423 ± 0.032 | 0.416 ± 0.043 | 0.412 ± 0.0073 | 0.362 ± 0.018 |
| LLSAFPYLPVFA | 0.277 ± 0.025 | 0.326 ± 0.048 | 0.251 ± 0.02 | 0.3941 ± 0.0035 | 0.2141 ± 0.00033 | 0.244 ± 0.022 | 0.373 ± 0.044 | 0.337 ± 0.0066 |
| YCFLSWVLMCCF | 0.457 ± 0.019 | 0.4613 ± 0.0037 | 0.399 ± 0.018 | 0.438 ± 0.011 | 0.421 ± 0.025 | 0.386 ± 0.0065 | 0.42 ± 0.0059 | 0.406 ± 0.022 |
| LWERRSRQLTMF | 0.645 ± 0.056 | 0.7649 ± 0.003 | 0.687 ± 0.014 | 0.7401 ± 0.0057 | 0.173 ± 0.011 | 0.166 ± 0.018 | 0.33 ± 0.026 | 0.263 ± 0.013 |
| NFSALECKVQLT | 0.747 ± 0.076 | 0.727 ± 0.018 | 0.625 ± 0.018 | 0.725 ± 0.017 | 0.647 ± 0.042 | 0.653 ± 0.026 | 0.689 ± 0.0082 | 0.75 ± 0.052 |
| IKKKKRKKIKAN | 0.634 ± 0.048 | 0.728 ± 0.019 | 0.65 ± 0.024 | 0.751 ± 0.015 | 0.199 ± 0.013 | 0.211 ± 0.017 | 0.291 ± 0.021 | 0.244 ± 0.043 |
| VFMSVAPVSVLG | 0.115 ± 0.047 | 0.118 ± 0.045 | 0.198 ± 0.026 | 0.2589 ± 0.00033 | 0.154 ± 0.016 | 0.184 ± 0.023 | 0.235 ± 0.0013 | 0.29 ± 0.015 |
| CVEACVWYNAGL | 0.745 ± 0.046 | 0.782 ± 0.024 | 0.662 ± 0.024 | 0.774 ± 0.027 | 0.6577 ± 0.004 | 0.687 ± 0.031 | 0.764 ± 0.015 | 0.7382 ± 0.0062 |
| MALAVRVVSCGA | 0.294 ± 0.015 | 0.3333 ± 0.0024 | 0.265 ± 0.032 | 0.4146 ± 0.0036 | 0.2244 ± 0.00017 | 0.262 ± 0.016 | 0.3802 ± 0.0015 | 0.3657 ± 0.0028 |
| FIGVLVFSWLLF | 0.244 ± 0.029 | 0.371 ± 0.0074 | 0.241 ± 0.035 | 0.412 ± 0.021 | 0.215 ± 0.0034 | 0.235 ± 0.024 | 0.381 ± 0.021 | 0.37 ± 0.03 |
| LVGYCGAWACVV | 0.642 ± 0.034 | 0.677 ± 0.021 | 0.558 ± 0.023 | 0.674 ± 0.018 | 0.244 ± 0.011 | 0.283 ± 0.027 | 0.501 ± 0.025 | 0.4 ± 0.036 |
